Results published in patent publication US20160264649A1.

Columns and labels:
Assay in all cases: cell-based or functional assay
[1] = target: HIV-1 Env of isolate MGRM-F1-010 (subtype F) (HIV-1)
[2] = target: HIV-1 Env of pseudovirus isolate MGRM-G-025 (subtype G) (HIV-1)
[3] = target: HIV-1 Env of isolate MGRM-D-022 (subtype D) (HIV-1)
[4] = target: HIV-1 Env of isolate MGRM-D-026 (subtype D) (HIV-1)
[5] = target: HIV-1 Env of pseudovirus isolate MGRM-G-024 (subtype G) (HIV-1)
[6] = target: HIV-1 Env of pseudovirus isolate MGRM-G-013 (subtype G) (HIV-1)
[7] = target: HIV-1 Env of isolate MGRM-D-012 (subtype D) (HIV-1)
[8] = target: HIV-1 Env of pseudovirus isolate MGRM-G-016 (subtype G) (HIV-1)
[9] = target: HIV-1 Env of isolate MGRM-D-024 (subtype D) (HIV-1)
[10] = target: HIV-1 Env of isolate MGRM-D-005 (subtype D) (HIV-1)
[11] = target: HIV-1 Env of isolate MGRM-D-002 (subtype D) (HIV-1)
[12] = target: HIV-1 Env of isolate MGRM-F1-016 (subtype F) (HIV-1)
[13] = target: HIV-1 Env of isolate MGRM-F1-013 (subtype F) (HIV-1)
[14] = target: HIV-1 Env of pseudovirus isolate MGRM-G-001 (subtype G) (HIV-1)
[15] = target: HIV-1 Env of isolate MGRM-F1-023 (subtype F) (HIV-1)
[16] = target: HIV-1 Env of pseudovirus isolate MGRM-G-009 (subtype G) (HIV-1)
[17] = target: HIV-1 Env of isolate MGRM-D-029 (subtype D) (HIV-1)
[18] = target: envelope of aMLV pseudovirus (negative control)
[19] = target: HIV-1 Env of isolate 92UG001 (subtype D) (HIV-1)
[20] = target: HIV-1 Env of pseudovirus isolate MGRM-G-015 (subtype G) (HIV-1)
[21] = target: HIV-1 Env of isolate MGRM-F1-017 (subtype F) (HIV-1)
[22] = target: HIV-1 Env of pseudovirus isolate MGRM-G-027 (subtype G) (HIV-1)
[23] = target: HIV-1 Env of isolate 92UG005 (subtype D) (HIV-1)
[24] = target: HIV-1 Env of isolate 98CN009 (subtype CRF07_BC) (HIV-1)
[25] = target: HIV-1 Env of isolate MGRM-F1-021 (subtype F) (HIV-1)
[26] = target: HIV-1 Env of pseudovirus isolate MGRM-G-014 (subtype G) (HIV-1)
[27] = target: HIV-1 Env of pseudovirus isolate MGRM-G-017 (subtype G) (HIV-1)
[28] = target: HIV-1 Env of isolate MGRM-F1-022 (subtype F) (HIV-1)
[29] = target: HIV-1 Env of isolate MGRM-D-001 (subtype D) (HIV-1)
[30] = target: HIV-1 Env of isolate MGRM-D-019 (subtype D) (HIV-1)
[31] = target: HIV-1 Env of isolate MGRM-D-003 (subtype D) (HIV-1)
[32] = target: HIV-1 Env of pseudovirus isolate MGRM-G-006 (subtype G) (HIV-1)
[33] = target: HIV-1 Env of isolate MGRM-D-014 (subtype D) (HIV-1)
[34] = target: HIV-1 Env of isolate 98CN006 (subtype CRF08_BC) (HIV-1)
[35] = target: HIV-1 Env of pseudovirus isolate MGRM-G-019 (subtype G) (HIV-1)
[36] = target: HIV-1 Env of isolate 92UG046 (subtype D) (HIV-1)
[37] = target: HIV-1 Env of isolate MGRM-F1-018 (subtype F) (HIV-1)
[38] = target: HIV-1 Env of isolate MGRM-F1-014 (subtype F) (HIV-1)
[39] = target: HIV-1 Env of isolate MGRM-D-013 (subtype D) (HIV-1)
[40] = target: HIV-1 Env of isolate MGRM-D-020 (subtype D) (HIV-1)
[41] = target: HIV-1 Env of isolate MGRM-D-004 (subtype D) (HIV-1)
[42] = target: HIV-1 Env of isolate MGRM-D-011 (subtype D) (HIV-1)
[43] = target: HIV-1 Env of isolate MGRM-D-016 (subtype D) (HIV-1)
[44] = target: HIV-1 Env of isolate MGRM-F1-004 (subtype F) (HIV-1)
[45] = target: HIV-1 Env of isolate MGRM-F1-015 (subtype F) (HIV-1)
[46] = target: HIV-1 Env of isolate MGRM-F1-012 (subtype F) (HIV-1)
[47] = target: HIV-1 Env of isolate MGRM-F1-008 (subtype F) (HIV-1)
[48] = target: HIV-1 Env of pseudovirus isolate MGRM-G-028 (subtype G) (HIV-1)
[49] = target: HIV-1 Env of isolate MGRM-D-021 (subtype D) (HIV-1)
[50] = target: HIV-1 Env of isolate MGRM-D-018 (subtype D) (HIV-1)
[51] = target: HIV-1 Env of isolate MGRM-D-028 (subtype D) (HIV-1)
[52] = target: HIV-1 Env of pseudovirus isolate MGRM-G-011 (subtype G) (HIV-1)
[53] = target: HIV-1 Env of isolate MGRM-F1-006 (subtype F) (HIV-1)
[54] = target: HIV-1 Env of isolate MGRM-F1-020 (subtype F) (HIV-1)
[55] = target: HIV-1 Env of pseudovirus isolate MGRM-G-004 (subtype G) (HIV-1)
[56] = target: HIV-1 Env of isolate MGRM-D-008 (subtype D) (HIV-1)
[57] = target: HIV-1 Env of isolate 92UG114 (subtype D) (HIV-1)
[58] = target: HIV-1 Env of isolate 92UG024 (subtype D) (HIV-1)

B1: PGT-131 (antibody, V domains shown)
VH: QVQLQESGPGLVKPSETLSLTCTVSGDSINTGHHYWGWVRQVPGKGPEWIAHIHYNTAVLHNPALKSRVTISIFTLKNLITLSLSNVTAADTAVYFCVRSGGDILYYIEWQKPHWFYPWGPGILVTVSS
VL: QSALTQPPSASGSLGQSLTISCSGTGSDIGSWNFVSWYQQFPGRAPNLIIFEVNRRRSGVPDRFSGSKSGNTASLTVSGLRSEDEAEYFCSSLSGRWDIVFGGGTKVTVL
[1]
  IC50 (neutralization): > 50 µg/mL
[2]
  IC50: 7.75 µg/mL
[3]
  IC50 (neutralization): > 50 µg/mL
[4]
  IC50 (neutralization): > 50 µg/mL
[5]
  IC50: 10.7 µg/mL
[6]
  IC50: > 50 µg/mL
[7]
  IC50 (neutralization): > 50 µg/mL
[8]
  IC50: > 50 µg/mL
[9]
  IC50 (neutralization): > 50 µg/mL
[10]
  IC50 (neutralization): > 50 µg/mL
[11]
  IC50 (neutralization): 11.2 µg/mL
[12]
  IC50 (neutralization): > 50 µg/mL
[13]
  IC50 (neutralization): > 50 µg/mL
[14]
  IC50: 0.404 µg/mL
[15]
  IC50 (neutralization): > 50 µg/mL
[16]
  IC50: > 50 µg/mL
[17]
  IC50 (neutralization): > 50 µg/mL
[18]
  IC50: > 50 µg/mL
[19]
  IC50 (neutralization): > 50 µg/mL
[20]
  IC50: > 50 µg/mL
[21]
  IC50 (neutralization): > 50 µg/mL
[22]
  IC50: 2.9 µg/mL
[23]
  IC50 (neutralization): 0.854 µg/mL
[24]
  IC50 (neutralization): 4.05 µg/mL
[25]
  IC50 (neutralization): > 50 µg/mL
[26]
  IC50: 4.31 µg/mL
[27]
  IC50: > 50 µg/mL
[28]
  IC50 (neutralization): > 50 µg/mL
[29]
  IC50 (neutralization): > 50 µg/mL
[30]
  IC50 (neutralization): > 50 µg/mL
[31]
  IC50 (neutralization): 19.6 µg/mL
[32]
  IC50: > 50 µg/mL
[33]
  IC50 (neutralization): 0.516 µg/mL
[34]
  IC50 (neutralization): 35.3 µg/mL
[35]
  IC50: > 50 µg/mL
[36]
  IC50 (neutralization): > 50 µg/mL
[37]
  IC50 (neutralization): > 50 µg/mL
[38]
  IC50 (neutralization): > 50 µg/mL
[39]
  IC50 (neutralization): 4.14 µg/mL
[40]
  IC50 (neutralization): > 50 µg/mL
[41]
  IC50 (neutralization): 2.01 µg/mL
[42]
  IC50 (neutralization): 0.756 µg/mL
[43]
  IC50 (neutralization): > 50 µg/mL
[44]
  IC50 (neutralization): 0.114 µg/mL
[45]
  IC50 (neutralization): > 50 µg/mL
[46]
  IC50 (neutralization): > 50 µg/mL
[47]
  IC50 (neutralization): 2.74 µg/mL
[48]
  IC50: 0.466 µg/mL
[49]
  IC50 (neutralization): 0.106 µg/mL
[50]
  IC50 (neutralization): 0.148 µg/mL
[51]
  IC50 (neutralization): > 50 µg/mL
[52]
  IC50: > 50 µg/mL
[53]
  IC50 (neutralization): > 50 µg/mL
[54]
  IC50 (neutralization): > 50 µg/mL
[55]
  IC50: > 50 µg/mL
[56]
  IC50 (neutralization): > 50 µg/mL
[57]
  IC50 (neutralization): > 50 µg/mL
[58]
  IC50 (neutralization): > 50 µg/mL

B2: PGT-135 (antibody, V domains shown)
VH: QLQMQESGPGLVKPSETLSLSCTVSGDSIRGGEWGDKDYHWGWVRHSAGKGLEWIGSIHWRGTTHYKESLRRRVSMSIDTSRNWFSLRLASVTAADTAVYFCARHRHHDVFMLVPIAGWFDVWGPGVQVTVSS
VL: EIVMTQSPDTLSVSPGETVTLSCRASQNINKNLAWYQYKPGQSPRLVIFETYSKIAAFPARFVASGSGTEFTLTINNMQSEDVAVYYCQQYEEWPRTFGQGTKVDIK
[1]
  IC50 (neutralization): > 50 µg/mL
[2]
  IC50: 0.592 µg/mL
[3]
  IC50 (neutralization): > 50 µg/mL
[4]
  IC50 (neutralization): > 50 µg/mL
[5]
  IC50: 0.062 µg/mL
[6]
  IC50: > 50 µg/mL
[7]
  IC50 (neutralization): > 50 µg/mL
[8]
  IC50: > 50 µg/mL
[9]
  IC50 (neutralization): > 50 µg/mL
[10]
  IC50 (neutralization): > 50 µg/mL
[11]
  IC50 (neutralization): > 50 µg/mL
[12]
  IC50 (neutralization): > 50 µg/mL
[13]
  IC50 (neutralization): 21.1 µg/mL
[14]
  IC50: 0.393 µg/mL
[15]
  IC50 (neutralization): 0.088 µg/mL
[16]
  IC50: > 50 µg/mL
[17]
  IC50 (neutralization): 30.8 µg/mL
[18]
  IC50: > 50 µg/mL
[19]
  IC50 (neutralization): > 50 µg/mL
[20]
  IC50: > 50 µg/mL
[21]
  IC50 (neutralization): 7.79 µg/mL
[22]
  IC50: 0.062 µg/mL
[23]
  IC50 (neutralization): > 50 µg/mL
[24]
  IC50 (neutralization): 0.071 µg/mL
[25]
  IC50 (neutralization): 0.065 µg/mL
[26]
  IC50: > 50 µg/mL
[27]
  IC50: 0.137 µg/mL
[28]
  IC50 (neutralization): 0.964 µg/mL
[29]
  IC50 (neutralization): > 50 µg/mL
[30]
  IC50 (neutralization): > 50 µg/mL
[31]
  IC50 (neutralization): > 50 µg/mL
[32]
  IC50: > 50 µg/mL
[33]
  IC50 (neutralization): 2.21 µg/mL
[34]
  IC50 (neutralization): 0.429 µg/mL
[35]
  IC50: 0.145 µg/mL
[36]
  IC50 (neutralization): > 50 µg/mL
[37]
  IC50 (neutralization): > 50 µg/mL
[38]
  IC50 (neutralization): > 50 µg/mL
[39]
  IC50 (neutralization): > 50 µg/mL
[40]
  IC50 (neutralization): > 50 µg/mL
[41]
  IC50 (neutralization): > 50 µg/mL
[42]
  IC50 (neutralization): 23.5 µg/mL
[43]
  IC50 (neutralization): > 50 µg/mL
[44]
  IC50 (neutralization): 0.211 µg/mL
[45]
  IC50 (neutralization): 1.11 µg/mL
[46]
  IC50 (neutralization): 0.01 µg/mL
[47]
  IC50 (neutralization): > 50 µg/mL
[48]
  IC50: > 50 µg/mL
[49]
  IC50 (neutralization): > 50 µg/mL
[50]
  IC50 (neutralization): 0.039 µg/mL
[51]
  IC50 (neutralization): > 50 µg/mL
[52]
  IC50: > 50 µg/mL
[53]
  IC50 (neutralization): > 50 µg/mL
[54]
  IC50 (neutralization): 0.168 µg/mL
[55]
  IC50: > 50 µg/mL
[56]
  IC50 (neutralization): > 50 µg/mL
[57]
  IC50 (neutralization): 1.29 µg/mL
[58]
  IC50 (neutralization): 0.01 µg/mL
